According to US20120282643A1:
Values belong to the substance of their own block, whether it stands above or below them.

Target: sulfite reductase tagged with a C-terminal GFP S11 (SEQ ID NO: 16)
Experiment: cell-based or functional assay

- Green Fluorescence (488/510) (clone E10): 21.4
- Ratio Yellow/Green Fluorescence (clone E10): 7.33
- Yellow Fluorescence (510/532) (clone E10): 157
Substance: Split-YFP S1-10 (T203Y, D210V) (from UniProt P42212 1-214)

- Green Fluorescence (488/510) (clone H1): 7.41
- Ratio Yellow/Green Fluorescence (clone H1): 18.7
- Yellow Fluorescence (510/532) (clone H1): 138
Substance: Split-YFP S1-10 (R80K, T203Y) (from UniProt P42212 1-214)

- Final Fluorescence (Ident. D1): 8860
- Final Fluorescence (Ident. D4): 3740
- Final Fluorescence (Ident. D6): 4100
- Final Fluorescence (Ident. D8): 3750
- Final Fluorescence (Ident. E4): 3280
- Final Fluorescence (Ident. F8): 1310
- Final Fluorescence (Ident. H2): 6570
- Initial Rate (Ident. D1): 14500
- Initial Rate (Ident. D4): 7990
- Initial Rate (Ident. D6): 10000
- Initial Rate (Ident. D8): 8440
- Initial Rate (Ident. E4): 7280
- Initial Rate (Ident. F8): 3820
- Initial Rate (Ident. H2): 9060
Substance: Split-CFP S1-10 (Y66W, H148D, T205S) (from UniProt P42212 1-214)

- Final Fluorescence (Ident. B8): 1640
- Final Fluorescence (Ident. B10): 3340
- Final Fluorescence (Ident. D2): 3360
- Initial Rate (Ident. B8): 8930
- Initial Rate (Ident. B10): 11500
- Initial Rate (Ident. D2): 11500
Substance: Split-CFP S1-10 (V16I, D19E, D21E, Y66W, H148D, T205S)

- Green Fluorescence (488/510) (clone A7): 2.77
- Ratio Yellow/Green Fluorescence (clone A7): 28.5
- Yellow Fluorescence (510/532) (clone A7): 79.1
Substance: Split-YFP S1-10 (T65L, V176I, T203Y, T205S) (from UniProt P42212 1-214)

- Final Fluorescence (Ident. G4): 5100
- Initial Rate (Ident. G4): 13000
Substance: Split-CFP S1-10 (D21E, Y66W, H148D, T205S) (from UniProt P42212 1-214)

- Green Fluorescence (488/510) (clone A3): 1.8
- Ratio Yellow/Green Fluorescence (clone A3): 42
- Yellow Fluorescence (510/532) (clone A3): 75.7
Substance: Split-YFP S1-10 (T203Y, T205A) (from UniProt P42212 1-214)

- Green Fluorescence (488/510) (clone B9): 14.7
- Ratio Yellow/Green Fluorescence (clone B9): 10.9
- Yellow Fluorescence (510/532) (clone B9): 160
Substance: Split-YFP S1-10 (Y200F, T203Y) (from UniProt P42212 1-214)

- Final Fluorescence (Ident. A5): 2860
- Initial Rate (Ident. A5): 9770
Substance: Split-CFP S1-10 (D19E, Y66W, H148D, T205S) (from UniProt P42212 1-214)

- Final Fluorescence (Ident. G12): 382
- Final Fluorescence (Ident. H12): 425
- Initial Rate (Ident. G12): 3740
- Initial Rate (Ident. H12): 3600
Substance: Split-CFP S1-10 (Y66W, T205S) (from UniProt P42212 1-214)

- Green Fluorescence (488/510) (clone D3): 7.15
- Ratio Yellow/Green Fluorescence (clone D3): 17.9
- Yellow Fluorescence (510/532) (clone D3): 128
Substance: Split-YFP S1-10 (T65G, P192H, T203Y, T205S) (from UniProt P42212 1-214)

- Final Fluorescence (Ident. A12): 990
- Final Fluorescence (Ident. B12): 1790
- Initial Rate (Ident. A12): 3060
- Initial Rate (Ident. B12): 4900
Substance: Split-CFP S1-10 (D21N, Y66W, H148D, T205S) (from UniProt P42212 1-214)

- Green Fluorescence (488/510) (clone C6): 5.1
- Ratio Yellow/Green Fluorescence (clone C6): 20
- Yellow Fluorescence (510/532) (clone C6): 102
Substance: Split-YFP S1-10 (T203Y, Q204E) (from UniProt P42212 1-214)

- Green Fluorescence (488/510) (clone F8): 20.2
- Ratio Yellow/Green Fluorescence (clone F8): 8.16
- Yellow Fluorescence (510/532) (clone F8): 165
Substance: Split-YFP S1-10 (T203Y, Q204H) (from UniProt P42212 1-214)

- Green Fluorescence (488/510) (clone F3): 10.5
- Ratio Yellow/Green Fluorescence (clone F3): 11.4
- Yellow Fluorescence (510/532) (clone F3): 120
Substance: Split-YFP S1-10 (C70S, T203Y) (from UniProt P42212 1-214)

- Final Fluorescence (Ident. A7): 2550
- Final Fluorescence (Ident. C6): 1120
- Final Fluorescence (Ident. C7): 1730
- Final Fluorescence (Ident. C8): 1010
- Final Fluorescence (Ident. C10): 1720
- Final Fluorescence (Ident. D7): 744
- Final Fluorescence (Ident. D10): 1200
- Final Fluorescence (Ident. E8): 1140
- Final Fluorescence (Ident. G2): 1910
- Final Fluorescence (Ident. G8): 1420
- Final Fluorescence (Ident. G9): 1700
- Final Fluorescence (Ident. H3): 2130
- Final Fluorescence (Ident. H5): 2000
- Final Fluorescence (Ident. H9): 1340
- Initial Rate (Ident. A7): 8100
- Initial Rate (Ident. C6): 3590
- Initial Rate (Ident. C7): 6280
- Initial Rate (Ident. C8): 4550
- Initial Rate (Ident. C10): 6180
- Initial Rate (Ident. D7): 3120
- Initial Rate (Ident. D10): 4290
- Initial Rate (Ident. E8): 5330
- Initial Rate (Ident. G2): 3790
- Initial Rate (Ident. G8): 9440
- Initial Rate (Ident. G9): 7820
- Initial Rate (Ident. H3): 6870
- Initial Rate (Ident. H5): 5750
- Initial Rate (Ident. H9): 7800
Substance: Split-CFP S1-10 (D19E, D21N, Y66W, H148D, T205S)

- Final Fluorescence (Ident. A2): 4110
- Final Fluorescence (Ident. A3): 1990
- Final Fluorescence (Ident. A6): 5000
- Final Fluorescence (Ident. A8): 2360
- Final Fluorescence (Ident. A9): 4990
- Final Fluorescence (Ident. A10): 4930
- Final Fluorescence (Ident. B1): 4790
- Final Fluorescence (Ident. B2): 3260
- Final Fluorescence (Ident. B3): 2360
- Final Fluorescence (Ident. B4): 1760
- Final Fluorescence (Ident. B5): 2740
- Final Fluorescence (Ident. B6): 2950
- Final Fluorescence (Ident. C2): 2250
- Final Fluorescence (Ident. C3): 2200
- Final Fluorescence (Ident. C5): 2540
- Final Fluorescence (Ident. C9): 1830
- Final Fluorescence (Ident. D5): 2420
- Final Fluorescence (Ident. D9): 1340
- Final Fluorescence (Ident. D12): 3130
- Final Fluorescence (Ident. E1): 4830
- Final Fluorescence (Ident. E2): 1690
- Final Fluorescence (Ident. E3): 1980
- Final Fluorescence (Ident. E5): 1800
- Final Fluorescence (Ident. E6): 2560
- Final Fluorescence (Ident. F1): 4070
- Final Fluorescence (Ident. F2): 1800
- Final Fluorescence (Ident. F3): 2290
- Final Fluorescence (Ident. F4): 1540
- Final Fluorescence (Ident. F5): 2900
- Final Fluorescence (Ident. F7): 2850
- Final Fluorescence (Ident. F9): 2710
- Final Fluorescence (Ident. G1): 4400
- Final Fluorescence (Ident. G3): 2410
- Final Fluorescence (Ident. G6): 2580
- Final Fluorescence (Ident. G7): 2130
- Final Fluorescence (Ident. H1): 4140
- Final Fluorescence (Ident. H4): 2360
- Final Fluorescence (Ident. H7): 3870
- Final Fluorescence (Ident. H8): 2820
- Initial Rate (Ident. A2): 14100
- Initial Rate (Ident. A3): 8810
- Initial Rate (Ident. A6): 18800
- Initial Rate (Ident. A8): 11700
- Initial Rate (Ident. A9): 17700
- Initial Rate (Ident. A10): 16900
- Initial Rate (Ident. B1): 15700
- Initial Rate (Ident. B2): 11900
- Initial Rate (Ident. B3): 8260
- Initial Rate (Ident. B4): 9110
- Initial Rate (Ident. B5): 10300
- Initial Rate (Ident. B6): 10600
- Initial Rate (Ident. C2): 7890
- Initial Rate (Ident. C3): 7950
- Initial Rate (Ident. C5): 9490
- Initial Rate (Ident. C9): 7200
- Initial Rate (Ident. D5): 8850
- Initial Rate (Ident. D9): 7490
- Initial Rate (Ident. D12): 12000
- Initial Rate (Ident. E1): 11700
- Initial Rate (Ident. E2): 7780
- Initial Rate (Ident. E3): 6770
- Initial Rate (Ident. E5): 6370
- Initial Rate (Ident. E6): 9260
- Initial Rate (Ident. F1): 9890
- Initial Rate (Ident. F2): 6690
- Initial Rate (Ident. F3): 7600
- Initial Rate (Ident. F4): 7760
- Initial Rate (Ident. F5): 10200
- Initial Rate (Ident. F7): 10000
- Initial Rate (Ident. F9): 9770
- Initial Rate (Ident. G1): 11000
- Initial Rate (Ident. G3): 10800
- Initial Rate (Ident. G6): 11900
- Initial Rate (Ident. G7): 9680
- Initial Rate (Ident. H1): 10000
- Initial Rate (Ident. H4): 10400
- Initial Rate (Ident. H7): 12900
- Initial Rate (Ident. H8): 10900
Substance: Split-CFP S1-10 (D19E, D21E, Y66W, H148D, T205S)

- Green Fluorescence (488/510) (clone E11): 4.51
- Ratio Yellow/Green Fluorescence (clone E11): 22.5
- Yellow Fluorescence (510/532) (clone E11): 101
Substance: Split-YFP S1-10 (T65G, S99F, T203Y, T205S) (from UniProt P42212 1-214)

- Final Fluorescence (Ident. E12): 1070
- Initial Rate (Ident. E12): 2040
Substance: Split-CFP S1-10 (V16I, D21E, Y66W, T205S) (from UniProt P42212 1-214)

- Green Fluorescence (488/510) (clone A9): 4.5
- Green Fluorescence (488/510) (clone B2): 5.85
- Green Fluorescence (488/510) (clone E7): 6.91
- Ratio Yellow/Green Fluorescence (clone A9): 24.3
- Ratio Yellow/Green Fluorescence (clone B2): 19.5
- Ratio Yellow/Green Fluorescence (clone E7): 17
- Yellow Fluorescence (510/532) (clone A9): 109
- Yellow Fluorescence (510/532) (clone B2): 114
- Yellow Fluorescence (510/532) (clone E7): 117
Substance: Split-YFP S1-10 (T65G, T203Y) (from UniProt P42212 1-214)

- Final Fluorescence (Ident. F6): 2910
- Initial Rate (Ident. F6): 10900
Substance: Split-CFP plate clone F6 (D19E, D21E, H148D, T205S) (from UniProt P42212 1-214)

- Final Fluorescence (Ident. C4): 2270
- Final Fluorescence (Ident. G5): 1360
- Initial Rate (Ident. C4): 7790
- Initial Rate (Ident. G5): 6070
Substance: Split-CFP S1-10 (D19E, D21E, Y66W, H148D, T205S, S208L)

- Green Fluorescence (488/510) (clone G11): 7.47
- Ratio Yellow/Green Fluorescence (clone G11): 18.9
- Yellow Fluorescence (510/532) (clone G11): 141
Substance: Split-YFP S1-10 (S99F, T203Y, T205S) (from UniProt P42212 1-214)
